This assay has as its target T1, CD20 (UniProt P11836 1-297, limits assumed).
T1 construct: also called the antigen (of Rituximab and Obinutuzumab)
T1 sequence (looked up): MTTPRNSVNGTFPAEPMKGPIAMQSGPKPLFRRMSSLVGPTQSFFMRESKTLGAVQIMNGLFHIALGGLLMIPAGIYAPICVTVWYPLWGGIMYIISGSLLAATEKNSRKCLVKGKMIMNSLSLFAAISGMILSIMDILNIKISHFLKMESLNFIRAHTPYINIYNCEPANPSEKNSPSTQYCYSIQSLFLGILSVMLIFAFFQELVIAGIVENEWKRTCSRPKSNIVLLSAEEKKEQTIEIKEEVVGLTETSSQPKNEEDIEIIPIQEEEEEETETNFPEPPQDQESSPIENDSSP
The experiment in a line: ELISA, target binding. (ELISA stands for enzyme-linked immunosorbent assay.)

B1: Rituximab (MabThera® or Rituxan®) population produced by the SAII A3 Fut8 KO cells according to the present disclosure (antibody, human IgG1, kappa, V domains shown)
VH: QVQLQQPGAELVKPGASVKMSCKASGYTFTSYNMHWVKQTPGRGLEWIGAIYPGNGDTSYNQKFKGKATLTADKSSSTAYMQLSSLTSEDSAVYYCARSTYYGGDWYFNVWGAGTTVTVSA
VL: QIVLSQSPAILSASPGEKVTMTCRASSSVSYIHWFQQKPGSSPKPWIYATSNLASGVPVRFSGSGSGTSYSLTISRVEAEDAATYYCQQWTSNPPTFGGGTKLEIKR
modifications: N-glycan: sialylated complex type glycans around 83.4% of the glycans, no core fucose
notes: Differs from the commercial product in the glycan profile only; also called Biobetter Rituximab; glycoengineered MabThera®
What is called EC50 is the concentration at which the effect is half-maximal. A higher EC50 goes with a less potent agent. As for B1, the response was half-maximal at 0.77 nM (EC50).

B2: Rituximab, commercially available product (MabThera®) (antibody, human IgG1, kappa, V domains shown)
VH: QVQLQQPGAELVKPGASVKMSCKASGYTFTSYNMHWVKQTPGRGLEWIGAIYPGNGDTSYNQKFKGKATLTADKSSSTAYMQLSSLTSEDSAVYYCARSTYYGGDWYFNVWGAGTTVTVSA
VL: QIVLSQSPAILSASPGEKVTMTCRASSSVSYIHWFQQKPGSSPKPWIYATSNLASGVPVRFSGSGSGTSYSLTISRVEAEDAATYYCQQWTSNPPTFGGGTKLEIKR
notes: Bought product; also called Rituxan
Molecule B2 yielded an EC50 of 0.544 nM.
